Experiment in all cases: Kd (EC50 corrected by depletion factor)
Data set [1] addresses T1, CPSF1 (UniProt Q10570).
T1 sequence: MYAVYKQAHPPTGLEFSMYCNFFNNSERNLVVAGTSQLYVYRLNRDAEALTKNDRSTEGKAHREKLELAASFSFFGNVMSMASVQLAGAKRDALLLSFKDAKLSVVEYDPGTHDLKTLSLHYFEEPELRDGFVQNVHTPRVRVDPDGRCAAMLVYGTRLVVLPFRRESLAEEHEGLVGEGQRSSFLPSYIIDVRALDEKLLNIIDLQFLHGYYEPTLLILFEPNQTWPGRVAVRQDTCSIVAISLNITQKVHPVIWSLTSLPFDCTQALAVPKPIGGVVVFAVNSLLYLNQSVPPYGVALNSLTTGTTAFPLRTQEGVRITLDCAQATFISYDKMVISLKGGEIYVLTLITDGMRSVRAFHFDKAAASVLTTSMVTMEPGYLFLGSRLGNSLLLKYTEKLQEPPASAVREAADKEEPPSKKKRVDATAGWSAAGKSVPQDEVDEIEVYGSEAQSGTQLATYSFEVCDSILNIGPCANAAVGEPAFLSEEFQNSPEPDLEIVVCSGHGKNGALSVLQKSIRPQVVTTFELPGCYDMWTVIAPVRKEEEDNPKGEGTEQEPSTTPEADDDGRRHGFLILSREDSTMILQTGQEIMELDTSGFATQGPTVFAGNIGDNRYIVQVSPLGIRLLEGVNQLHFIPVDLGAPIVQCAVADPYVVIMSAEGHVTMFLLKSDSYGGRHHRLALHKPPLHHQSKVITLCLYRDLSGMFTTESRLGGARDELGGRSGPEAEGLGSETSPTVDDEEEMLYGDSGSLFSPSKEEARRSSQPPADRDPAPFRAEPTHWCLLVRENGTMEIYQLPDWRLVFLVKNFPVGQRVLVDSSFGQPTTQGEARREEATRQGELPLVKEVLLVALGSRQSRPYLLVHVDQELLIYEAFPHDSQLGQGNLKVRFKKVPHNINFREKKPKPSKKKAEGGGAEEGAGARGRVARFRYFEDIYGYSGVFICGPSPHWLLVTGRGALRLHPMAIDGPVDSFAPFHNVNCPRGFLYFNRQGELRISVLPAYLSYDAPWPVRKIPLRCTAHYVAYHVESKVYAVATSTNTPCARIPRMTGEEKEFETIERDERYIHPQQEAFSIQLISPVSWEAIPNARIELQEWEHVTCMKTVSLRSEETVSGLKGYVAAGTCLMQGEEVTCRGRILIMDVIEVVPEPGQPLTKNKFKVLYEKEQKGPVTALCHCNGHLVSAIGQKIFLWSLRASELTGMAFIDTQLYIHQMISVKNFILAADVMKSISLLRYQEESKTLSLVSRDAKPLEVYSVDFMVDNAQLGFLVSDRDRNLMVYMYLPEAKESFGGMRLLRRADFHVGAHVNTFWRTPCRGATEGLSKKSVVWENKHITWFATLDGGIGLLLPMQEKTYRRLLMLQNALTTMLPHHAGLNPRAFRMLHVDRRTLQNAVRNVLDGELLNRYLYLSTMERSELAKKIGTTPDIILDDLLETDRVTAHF
Put shortly: (§1)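 HEK293-FT lysate (2.5 mg protein/well) was pre-incubated 1 h at 4°C with free RNA oligos (0 nM to 30 μM), then 30 min at 4°C with the same 5′-amino-C6 oligos coupled to NHS-Sepharose beads. Bound proteins were quantified by label-free LC-MS/MS in three biological replicates and two independent experiments, and normalised to the water control. EC50 came from a four-parameter log-logistic fit; Kd is EC50 times a protein-dependent depletion factor.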

Data set [2] deals with T2, CPSF2 (UniProt Q9P2I0).
T2 sequence: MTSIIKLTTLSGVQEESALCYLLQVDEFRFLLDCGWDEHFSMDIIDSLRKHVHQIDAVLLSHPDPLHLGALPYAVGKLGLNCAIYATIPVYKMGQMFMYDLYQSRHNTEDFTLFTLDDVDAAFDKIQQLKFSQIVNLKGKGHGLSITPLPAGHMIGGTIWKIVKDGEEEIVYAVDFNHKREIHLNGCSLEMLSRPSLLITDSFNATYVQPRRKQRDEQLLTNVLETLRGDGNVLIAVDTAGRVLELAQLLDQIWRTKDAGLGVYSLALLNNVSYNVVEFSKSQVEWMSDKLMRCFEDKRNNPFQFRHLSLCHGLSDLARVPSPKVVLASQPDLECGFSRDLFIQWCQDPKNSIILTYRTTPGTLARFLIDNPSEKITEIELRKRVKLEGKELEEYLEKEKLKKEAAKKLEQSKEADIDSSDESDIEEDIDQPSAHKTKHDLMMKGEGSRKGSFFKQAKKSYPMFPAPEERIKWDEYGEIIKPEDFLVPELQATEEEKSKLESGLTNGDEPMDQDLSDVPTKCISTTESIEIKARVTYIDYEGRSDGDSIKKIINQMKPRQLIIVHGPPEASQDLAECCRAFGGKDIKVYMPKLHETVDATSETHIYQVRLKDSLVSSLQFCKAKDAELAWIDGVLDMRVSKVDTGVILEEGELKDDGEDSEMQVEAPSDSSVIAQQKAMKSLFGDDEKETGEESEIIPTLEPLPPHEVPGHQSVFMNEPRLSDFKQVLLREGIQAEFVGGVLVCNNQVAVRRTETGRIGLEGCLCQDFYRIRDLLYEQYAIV
The method, boiled down:
as §1

In data set [3] the target is LRPPRC (UniProt P42704). Put shortly:
as §1

Data set [4] deals with MSI2 (UniProt Q96DH6). Put shortly:
as §1

Data set [5] deals with T3, RBMS2 (UniProt Q15434).
T3 sequence: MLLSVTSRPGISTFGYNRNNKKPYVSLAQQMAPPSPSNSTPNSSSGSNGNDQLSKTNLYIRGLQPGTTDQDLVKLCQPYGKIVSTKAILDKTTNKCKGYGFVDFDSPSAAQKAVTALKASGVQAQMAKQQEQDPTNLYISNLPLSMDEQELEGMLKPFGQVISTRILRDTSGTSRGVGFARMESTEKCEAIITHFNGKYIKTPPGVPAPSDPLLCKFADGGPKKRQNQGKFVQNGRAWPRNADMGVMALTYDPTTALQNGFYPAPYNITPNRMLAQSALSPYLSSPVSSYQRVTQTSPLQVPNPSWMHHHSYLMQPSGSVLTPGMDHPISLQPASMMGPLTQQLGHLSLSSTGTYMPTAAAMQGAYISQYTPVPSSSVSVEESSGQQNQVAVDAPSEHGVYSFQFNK
The method, boiled down:
as §1

What is called Kd is a measure of binding affinity in units of concentration. Higher therefore signals lower affinity.

Sequence of MSI2 (Q96DH6 whole entry): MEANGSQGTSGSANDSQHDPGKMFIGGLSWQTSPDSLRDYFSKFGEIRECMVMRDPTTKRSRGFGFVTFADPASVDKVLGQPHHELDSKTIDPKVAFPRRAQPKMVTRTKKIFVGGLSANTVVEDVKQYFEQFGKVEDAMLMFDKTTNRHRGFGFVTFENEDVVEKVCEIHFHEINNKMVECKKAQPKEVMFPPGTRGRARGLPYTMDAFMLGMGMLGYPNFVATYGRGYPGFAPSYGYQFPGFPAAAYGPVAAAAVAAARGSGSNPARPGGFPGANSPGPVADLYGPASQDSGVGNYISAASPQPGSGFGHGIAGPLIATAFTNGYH

As for AAUAAA, the Kd was 6.97 nM in data set [1]; 5.66 nM in data set [2]; 1130 nM in data set [3]; 104 nM in data set [4]; 158 nM in data set [5].
As to CUGUCCU, the Kd in data set [3] turned out to be 1260 nM.
For UAUUUAU, the dissociation constant Kd in data set [1] came out at 340 nM; in data set [2], 452 nM; in data set [4] it was 475 nM; in data set [5], 274 nM.

(Values after the supplement of paper PMC6379048.)
